{"source": "the RNAGym collection of RNA variant scans (doi:10.7554/elife.90254)", "parents": {"B1": {"name": "OR4K15 (parent)", "chain": "GUUAACGGUCAUAGGCCAUGGAAACUAGGAGCACCAUUUCGCUGCCAGUGAAGAAAUGAACAAAGAAAAUCUGGGCCAGGCAGGCAUCAAAAGAAAUAGUCUUGCGCUCAACCAGAAAGUCUGUAAUCAUUUUAAGGGUA"}}}
{"variants_of": "B1", "test": "self-cleavage, relative activity (ratio to wild type); higher = more cleavage; in vitro, sequencing; the parent is a self-cleaving ribozyme"}
{"variant": "GUUAACGGUCAUAGGCCAUGGAAACUAGGAGCACCAUUACGCUGCCAGUGAAGAAAUGAACAAAGAAAAUCUGGGCCAGGCAGGCAUCAAAAGAAAUAGUCUUGCGCUCAACCAGAAAGUCUGUAACCAUUUUAAGGGUA", "self-cleavage": 0.28}
{"variant": "GUUAACGGUCAUAGGCCAUGGAAACUAGGAGCACCAUUCCGCUGCCAGUGAAGAAAUGAACAAAGAAAAUCUGGGCCAGGCAGGCAUCAAAAGAAAUAGUCUUGCGCUCAACCAGAAAGUCUGUAAUCAUUUUAAGGGUA", "self-cleavage": 1.34}
{"variant": "GUUAACGGUCAUAGGCCAUGGAAACUAGGAGCACCAUUCCGCUGCCCGUGAAGAAAUGAACAAAGAAAAUCUGGGCCAGGCAGGCAUCAAAAGAAAUAGUCUUGCGCUCAACCAGAAAGUCUGUAAUCAUUUUAAGGGUA", "self-cleavage": 1.63}
{"variant": "GUUAACGGUCAUAGGCCAUGGAAACUAGGAGCACCAUUCCGCUGCCGGUGAAGAAAUGAACAAAGAAAAUCUGGGCCAGGCAGGCAUCAAAAGAAAUAGUCUUGCGCUCAACCAGAAAGUCUGUAAUCAUUUUAAGGGUA", "self-cleavage": 1.25}
{"variant": "GUUAACGGUCAUAGGCCAUGGAAACUAGGAGCACCAUUCCGCUGCCAGUGAAGAAAUGACCAAAGAAAAUCUGGGCCAGGCAGGCAUCAAAAGAAAUAGUCUUGCGCUCAACCAGAAAGUCUGUAAUCAUUUUAAGGGUA", "self-cleavage": 2.05}
{"variant": "GUUAACGGUCAUAGGCCAUGGAAACUAGGAGCACCAUUCCGCUGCCAGUGAAGAAAUGAUCAAAGAAAAUCUGGGCCAGGCAGGCAUCAAAAGAAAUAGUCUUGCGCUCAACCAGAAAGUCUGUAAUCAUUUUAAGGGUA", "self-cleavage": 1.88}
{"variant": "GUUAACGGUCAUAGGCCAUGGAAACUAGGAGCACCAUUACGCUGCCAGUGAAGAAAUGAACAAAGAAAAUCUGGGCCAGGCAGGCAUCAAAAGAAAUAGUCUUGCGCUCAACCAGAAAGUCUGUAAUCAUCUUAAGGGUA", "self-cleavage": 1.59}
{"variant": "GUUAACGGUCAUAGGCCAUGGAAACUAGGAGCACCAUUCCGCUGCCAGUGAAGAACUGAACAAAGAAAAUCUGGGCCAGGCAGGCAUCAAAAGAAAUAGUCUUGCGCUCAACCAGAAAGUCUGUAAUCAUUUUAAGGGUA", "self-cleavage": 0.43}
{"variant": "GUUAACGGUCAUAGGCCAUGGAAACUAGGAGCACCAUUCCGCUGCCAGUGAAGAAGUGAACAAAGAAAAUCUGGGCCAGGCAGGCAUCAAAAGAAAUAGUCUUGCGCUCAACCAGAAAGUCUGUAAUCAUUUUAAGGGUA", "self-cleavage": 0.89}
{"variant": "GUUAACGGUCAUAGGCCAUGGAAACUAGGAGCACCAUUCCGCUGCCAGUGAAGGAAUGAACAAAGAAAAUCUGGGCCAGGCAGGCAUCAAAAGAAAUAGUCUUGCGCUCAACCAGAAAGUCUGUAAUCAUUUUAAGGGUA", "self-cleavage": 0.69}
{"variant": "GUUAACGGUCAUAGGCCAUGGAAACUAGGAGCACCAUUACGCUGCCAGUGAAGAAAUGAACAAAGAAAAUCUGGGCCAGGCAGGCAUCAAAAGAAAUAGUCUUGCGCUCAACCAGAAAGCCUGUAAUCAUUUUAAGGGUA", "self-cleavage": 0.95}
{"variant": "GUUAACGGUCAUAGGCCAUGGAAACUAGGAGCACCAUUCCGCUGCCAGUGAAGAAAUGAACGAAGAAAAUCUGGGCCAGGCAGGCAUCAAAAGAAAUAGUCUUGCGCUCAACCAGAAAGUCUGUAAUCAUUUUAAGGGUA", "self-cleavage": 0.75}
{"variant": "GUUAACGGUCAUAGGCCAUGGAAACUAGGAGCACCAUUCCGCUGCCAGUGAAGAAAUGAACUAAGAAAAUCUGGGCCAGGCAGGCAUCAAAAGAAAUAGUCUUGCGCUCAACCAGAAAGUCUGUAAUCAUUUUAAGGGUA", "self-cleavage": 1.95}
{"variant": "GUUAACGGUCAUAGGCCAUGGAAACUAGGAGCACCAUUCCGCUGCCAGUGACGAAAUGAACAAAGAAAAUCUGGGCCAGGCAGGCAUCAAAAGAAAUAGUCUUGCGCUCAACCAGAAAGUCUGUAAUCAUUUUAAGGGUA", "self-cleavage": 1.78}
{"variant": "GUUAACGGUCAUAGGCCAUGGAAACUAGGAGCACCAUUCCGCUGCCAGUGAGGAAAUGAACAAAGAAAAUCUGGGCCAGGCAGGCAUCAAAAGAAAUAGUCUUGCGCUCAACCAGAAAGUCUGUAAUCAUUUUAAGGGUA", "self-cleavage": 1.76}
{"variant": "GUUAACGGUCAUAGGCCAUGGAAACUAGGAGCACCAUUACGCUGCCAGUGAAGAAAUGAACAAAGAAAAUCUGGGCCAGGCAGGCAUCAAAAGAAAUAGUCUUGCGCUCAACCAGAAAGUCUGUAAUCAUUCUAAGGGUA", "self-cleavage": 1.97}
{"variant": "GUUAACGGUCAUAGGCCAUGGAAACUAGGAGCACCAUUCCGCUGCCAGUGUAGAAAUGAACAAAGAAAAUCUGGGCCAGGCAGGCAUCAAAAGAAAUAGUCUUGCGCUCAACCAGAAAGUCUGUAAUCAUUUUAAGGGUA", "self-cleavage": 2.29}
{"variant": "GUUAACGGUCAUAGGCCAUGGAAACUAGGAGCACCAUUCCGCUGCCAGUGAAGAUAUGAACAAAGAAAAUCUGGGCCAGGCAGGCAUCAAAAGAAAUAGUCUUGCGCUCAACCAGAAAGUCUGUAAUCAUUUUAAGGGUA", "self-cleavage": 2.15}
{"variant": "GUUAACGGUCAUAGGCCAUGGAAACUAGGAGCACCAUUACGCUGCCAGUGAAGAAAUGAACAAAGAAAAUCUGGGCCAGGCAGGCAUCAAAAGAAAUAGUCUUGCGCUCAACCAGAAAGUCUGUAAUCAUUUCAAGGGUA", "self-cleavage": 1.76}
{"variant": "GUUAACGGUCAUAGGCCAUGGAAACUAGGAGCACCAUUCCGCUGCCAGUGAAGAAAUGGACAAAGAAAAUCUGGGCCAGGCAGGCAUCAAAAGAAAUAGUCUUGCGCUCAACCAGAAAGUCUGUAAUCAUUUUAAGGGUA", "self-cleavage": 1.51}
{"variant": "GUUAACGGUCAUAGGCCAUGGAAACUAGGAGCACCAUUCCGCUGCCAGUGAAGAAAUGUACAAAGAAAAUCUGGGCCAGGCAGGCAUCAAAAGAAAUAGUCUUGCGCUCAACCAGAAAGUCUGUAAUCAUUUUAAGGGUA", "self-cleavage": 1.98}
